Reference: the supplement of paper PMC10065799, “High-throughput profiling of sequence recognition by tyrosine kinases and SH2 domains using bacterial peptide display” (eLife, 2023)

Target: FGFR1 (UniProt P11362)
Assay: phosphorylation enrichment, bacterial display (enrichment ratio); higher = better substrate or ligand; peptides without Tyr show the background
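Further: 11-residue human phosphosite peptides and single-mutation variants displayed on the E. coli surface, counted by deep sequencing, each peptide's frequency after selection divided by its frequency in the unselected input library; frequency after pTyr selection over input frequency; kinase dosed for 20-30% of maximal phosphorylation in three min.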

Sequence of FGFR1 (P11362 whole entry, looked up): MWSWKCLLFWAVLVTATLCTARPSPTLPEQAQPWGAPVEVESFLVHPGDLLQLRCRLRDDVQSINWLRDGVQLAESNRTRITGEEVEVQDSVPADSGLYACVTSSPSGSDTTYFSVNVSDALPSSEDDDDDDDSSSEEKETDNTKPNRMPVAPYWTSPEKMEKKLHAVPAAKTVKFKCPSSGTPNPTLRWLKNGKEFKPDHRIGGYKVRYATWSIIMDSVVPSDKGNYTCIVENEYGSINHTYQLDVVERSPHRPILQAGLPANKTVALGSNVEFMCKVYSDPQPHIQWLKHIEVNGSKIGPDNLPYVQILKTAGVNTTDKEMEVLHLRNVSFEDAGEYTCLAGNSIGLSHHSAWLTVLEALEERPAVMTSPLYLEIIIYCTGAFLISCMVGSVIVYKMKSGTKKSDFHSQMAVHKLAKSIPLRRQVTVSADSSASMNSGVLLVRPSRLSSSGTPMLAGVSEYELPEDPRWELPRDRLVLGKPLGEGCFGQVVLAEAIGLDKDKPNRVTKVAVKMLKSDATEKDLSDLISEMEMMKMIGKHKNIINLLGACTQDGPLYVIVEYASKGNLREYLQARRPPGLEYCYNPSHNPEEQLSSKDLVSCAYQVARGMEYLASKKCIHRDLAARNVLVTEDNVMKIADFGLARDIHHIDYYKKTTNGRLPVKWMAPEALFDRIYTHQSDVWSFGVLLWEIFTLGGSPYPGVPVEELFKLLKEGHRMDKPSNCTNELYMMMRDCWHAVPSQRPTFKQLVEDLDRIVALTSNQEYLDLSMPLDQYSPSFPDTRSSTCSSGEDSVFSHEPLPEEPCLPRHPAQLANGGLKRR

In order of falling phosphorylation enrichment:
1. PYTDPYYDYEI [ZC3H18_Y371_A368T]  18.9
2. SLAARYYNWVC [FLT4_Y1230_S1235C]  4.96
3. YYHCTYKKRMI [CLEC12A_Y242]  4.79
4. RENGPYYASYP [GDAP2_Y487_T489A]  2.29
5. LLKKIYLMLDN [STAT1_Y203_M202I]  1.08
6. HKLSSYEYDFE [BTK_Y40_Y39S]  0.952
7. TRSFDYMEGED [FGF7_Y58_G62E_YF]  0.827
8. IRSGIYYKPES [L2HGDH_Y102_H98R]  0.745
9. YSMGCYEISLG [HMGCL_Y198]  0.69
10. FTNRSYDLDYD [MYC_Y12_N11S]  0.561
11. GPCKAYELSQR [SETX_Y1297_R1294C]  0.547
12. GSCQEYTGAPF [NAXD_Y85_G81S_YF]  0.536
13. SGEKPYKCSEC [ZNF543_Y283]  0.535
14. MSFDRYMAVCH [OR2A5_Y123_I126V_YF]  0.532
15. ENAGYYFRISA  0.527
16. TFVKSYTIHFS [F5_Y2153_M2148T_YF]  0.517
17. RLLVVYPWTER [HBB_Y36_Q40E]  0.513
18. FAAAGYGSLEA [EPHA10_Y959]  0.507
19. WRPFGYPRCRR [BCS1L_Y181_R184C]  0.505
20. GADAIYDHINE [UQCR10_Y44]  0.5
21. GASWRYRSGVS [NEU1_Y242_G243R]  0.494
22. GPQSLYNGLVA [UCP2_Y79_R76Q]  0.493
23. AEPDIYQEKLS [USP54_Y1233]  0.457
24. GEPLSYTRFSL [TFRC_Y20]  0.452
25. TSNNPYFRDQA [RPGRIP1_Y846_A841T]  0.451
26. KWRGQYDVAIE [BTK_Y425_K430E]  0.448
27. AKKVFYMIETR [SHH_Y253_V254M]  0.448
28. AFLQTYSHEVS [PCDHGA5_Y753]  0.442
29. YVPSNYVAEDR [FRK_Y104_I100V]  0.441
30. NSRFTYKLEVK [USH2A_Y3747_YF]  0.432
31. KIIATYRLCSE [DNAH3_Y1586_V1583I]  0.431
32. LQTFHYHGHSM [PDHA1_Y289_R288H_YF]  0.419
33. ICANKYMVKSC [RPL10_Y75]  0.385

Test system: c-Src
Assay: as above

In order of falling phosphorylation enrichment:
1. RENGPYYASYP [GDAP2_Y487_T489A]  7.26
2. PYTDPYYDYEI [ZC3H18_Y371_A368T]  6.46
3. GADAIYDHINE [UQCR10_Y44]  4.96
4. YSMGCYEISLG [HMGCL_Y198]  2.35
5. GPQSLYNGLVA [UCP2_Y79_R76Q]  1.83
6. IRSGIYYKPES [L2HGDH_Y102_H98R]  1.51
7. HKLSSYEYDFE [BTK_Y40_Y39S]  1.43
8. LQTFHYHGHSM [PDHA1_Y289_R288H_YF]  1.2
9. FAAAGYGSLEA [EPHA10_Y959]  1.14
10. LLKKIYLMLDN [STAT1_Y203_M202I]  0.977
11. GEPLSYTRFSL [TFRC_Y20]  0.83
12. AFLQTYSHEVS [PCDHGA5_Y753]  0.812
13. TSNNPYFRDQA [RPGRIP1_Y846_A841T]  0.721
14. YYHCTYKKRMI [CLEC12A_Y242]  0.599
15. SLAARYYNWVC [FLT4_Y1230_S1235C]  0.597
16. FTNRSYDLDYD [MYC_Y12_N11S]  0.576
17. AEPDIYQEKLS [USP54_Y1233]  0.568
18. GSCQEYTGAPF [NAXD_Y85_G81S_YF]  0.564
19. GPCKAYELSQR [SETX_Y1297_R1294C]  0.546
20. SGEKPYKCSEC [ZNF543_Y283]  0.544
21. WRPFGYPRCRR [BCS1L_Y181_R184C]  0.528
22. RLLVVYPWTER [HBB_Y36_Q40E]  0.52
23. MSFDRYMAVCH [OR2A5_Y123_I126V_YF]  0.473
24. AKKVFYMIETR [SHH_Y253_V254M]  0.472
25. TFVKSYTIHFS [F5_Y2153_M2148T_YF]  0.447
26. GASWRYRSGVS [NEU1_Y242_G243R]  0.445
27. ICANKYMVKSC [RPL10_Y75]  0.44
28. KWRGQYDVAIE [BTK_Y425_K430E]  0.437
29. KIIATYRLCSE [DNAH3_Y1586_V1583I]  0.421
30. YVPSNYVAEDR [FRK_Y104_I100V]  0.392
31. TRSFDYMEGED [FGF7_Y58_G62E_YF]  0.391
32. NSRFTYKLEVK [USH2A_Y3747_YF]  0.382
33. ENAGYYFRISA  0.356

Test system: c-Abl (mouse)
Assay: as above

In order of falling phosphorylation enrichment:
1. IRSGIYYKPES [L2HGDH_Y102_H98R]  8.79
2. RENGPYYASYP [GDAP2_Y487_T489A]  1.94
3. LLKKIYLMLDN [STAT1_Y203_M202I]  1.85
4. PYTDPYYDYEI [ZC3H18_Y371_A368T]  1.59
5. YSMGCYEISLG [HMGCL_Y198]  1.08
6. GEPLSYTRFSL [TFRC_Y20]  1
7. YYHCTYKKRMI [CLEC12A_Y242]  0.994
8. HKLSSYEYDFE [BTK_Y40_Y39S]  0.966
9. SLAARYYNWVC [FLT4_Y1230_S1235C]  0.957
10. MSFDRYMAVCH [OR2A5_Y123_I126V_YF]  0.931
11. TFVKSYTIHFS [F5_Y2153_M2148T_YF]  0.873
12. NSRFTYKLEVK [USH2A_Y3747_YF]  0.853
13. ENAGYYFRISA  0.764
14. TRSFDYMEGED [FGF7_Y58_G62E_YF]  0.754
15. FAAAGYGSLEA [EPHA10_Y959]  0.747
16. KIIATYRLCSE [DNAH3_Y1586_V1583I]  0.693
17. AEPDIYQEKLS [USP54_Y1233]  0.692
18. GADAIYDHINE [UQCR10_Y44]  0.689
19. AKKVFYMIETR [SHH_Y253_V254M]  0.673
20. GPCKAYELSQR [SETX_Y1297_R1294C]  0.664
21. SGEKPYKCSEC [ZNF543_Y283]  0.654
22. FTNRSYDLDYD [MYC_Y12_N11S]  0.645
23. GSCQEYTGAPF [NAXD_Y85_G81S_YF]  0.638
24. TSNNPYFRDQA [RPGRIP1_Y846_A841T]  0.628
25. GPQSLYNGLVA [UCP2_Y79_R76Q]  0.628
26. RLLVVYPWTER [HBB_Y36_Q40E]  0.612
27. YVPSNYVAEDR [FRK_Y104_I100V]  0.584
28. KWRGQYDVAIE [BTK_Y425_K430E]  0.537
29. ICANKYMVKSC [RPL10_Y75]  0.524
30. AFLQTYSHEVS [PCDHGA5_Y753]  0.518
31. LQTFHYHGHSM [PDHA1_Y289_R288H_YF]  0.493
32. GASWRYRSGVS [NEU1_Y242_G243R]  0.48
33. WRPFGYPRCRR [BCS1L_Y181_R184C]  0.403

Target: MERTK (UniProt Q12866)
Assay: as above

Sequence of MERTK (Q12866 whole entry, looked up): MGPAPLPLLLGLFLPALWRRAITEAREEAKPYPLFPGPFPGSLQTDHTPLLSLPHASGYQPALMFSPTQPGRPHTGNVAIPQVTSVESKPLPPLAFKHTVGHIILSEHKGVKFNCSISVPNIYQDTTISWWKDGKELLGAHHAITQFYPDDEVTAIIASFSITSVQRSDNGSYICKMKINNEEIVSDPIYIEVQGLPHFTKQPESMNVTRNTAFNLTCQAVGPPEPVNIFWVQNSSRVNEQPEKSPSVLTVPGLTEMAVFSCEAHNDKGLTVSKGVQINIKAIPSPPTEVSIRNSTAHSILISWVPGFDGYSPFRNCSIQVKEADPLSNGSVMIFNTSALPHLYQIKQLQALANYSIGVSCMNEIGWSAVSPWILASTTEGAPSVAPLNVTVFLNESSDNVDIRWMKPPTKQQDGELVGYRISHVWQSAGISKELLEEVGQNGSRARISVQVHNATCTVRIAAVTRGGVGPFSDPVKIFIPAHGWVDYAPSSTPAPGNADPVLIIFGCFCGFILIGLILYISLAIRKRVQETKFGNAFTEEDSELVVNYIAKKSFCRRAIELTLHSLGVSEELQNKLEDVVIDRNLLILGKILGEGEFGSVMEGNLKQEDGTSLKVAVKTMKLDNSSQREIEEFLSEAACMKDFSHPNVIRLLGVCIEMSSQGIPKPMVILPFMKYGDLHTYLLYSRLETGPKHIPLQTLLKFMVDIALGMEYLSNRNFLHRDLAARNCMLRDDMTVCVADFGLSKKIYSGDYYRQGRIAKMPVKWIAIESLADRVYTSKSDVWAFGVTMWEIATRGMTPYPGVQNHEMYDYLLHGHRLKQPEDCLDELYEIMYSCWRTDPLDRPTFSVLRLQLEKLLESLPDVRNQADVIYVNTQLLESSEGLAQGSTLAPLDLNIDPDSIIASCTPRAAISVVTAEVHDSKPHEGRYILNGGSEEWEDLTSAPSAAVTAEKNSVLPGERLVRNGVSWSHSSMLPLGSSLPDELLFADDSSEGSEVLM

In order of rising phosphorylation enrichment:
1. RLLVVYPWTER [HBB_Y36_Q40E]  0.324
2. KIIATYRLCSE [DNAH3_Y1586_V1583I]  0.354
3. ENAGYYFRISA  0.369
4. AKKVFYMIETR [SHH_Y253_V254M]  0.386
5. GASWRYRSGVS [NEU1_Y242_G243R]  0.402
6. AEPDIYQEKLS [USP54_Y1233]  0.405
7. ICANKYMVKSC [RPL10_Y75]  0.409
8. YVPSNYVAEDR [FRK_Y104_I100V]  0.414
9. KWRGQYDVAIE [BTK_Y425_K430E]  0.424
10. GSCQEYTGAPF [NAXD_Y85_G81S_YF]  0.424
11. TFVKSYTIHFS [F5_Y2153_M2148T_YF]  0.434
12. TRSFDYMEGED [FGF7_Y58_G62E_YF]  0.435
13. GPCKAYELSQR [SETX_Y1297_R1294C]  0.451
14. NSRFTYKLEVK [USH2A_Y3747_YF]  0.467
15. FAAAGYGSLEA [EPHA10_Y959]  0.469
16. TSNNPYFRDQA [RPGRIP1_Y846_A841T]  0.473
17. LQTFHYHGHSM [PDHA1_Y289_R288H_YF]  0.501
18. WRPFGYPRCRR [BCS1L_Y181_R184C]  0.505
19. FTNRSYDLDYD [MYC_Y12_N11S]  0.512
20. GEPLSYTRFSL [TFRC_Y20]  0.567
21. MSFDRYMAVCH [OR2A5_Y123_I126V_YF]  0.567
22. SGEKPYKCSEC [ZNF543_Y283]  0.58
23. AFLQTYSHEVS [PCDHGA5_Y753]  0.585
24. GPQSLYNGLVA [UCP2_Y79_R76Q]  0.723
25. LLKKIYLMLDN [STAT1_Y203_M202I]  0.822
26. HKLSSYEYDFE [BTK_Y40_Y39S]  0.911
27. YYHCTYKKRMI [CLEC12A_Y242]  1.48
28. YSMGCYEISLG [HMGCL_Y198]  2.66
29. GADAIYDHINE [UQCR10_Y44]  3.14
30. PYTDPYYDYEI [ZC3H18_Y371_A368T]  3.26
31. SLAARYYNWVC [FLT4_Y1230_S1235C]  3.49
32. RENGPYYASYP [GDAP2_Y487_T489A]  7.74
33. IRSGIYYKPES [L2HGDH_Y102_H98R]  9.7
